The test system of test [1] is C. auris AR-0386. The experiment in a line: Passive transfer of mAbs or two mAbs in combination in A/J mouse model of invasive C. auris infection. Format: in vivo, Candida auris. The method, then: A. Complement protein C5-defecient A/J mice were treated with one of the five mAb or with DPBS as a vehicle control. The following day, mice were challenged with 1×10^8 C. auris cells/100 ul DPBS dose per mouse. […] B. Fungal burdens in the kidneys (top), heard (center), and brain (bottom).
Identified protective mAbs were obtained by use of standard hybridoma technique and purified by use of protein A/G. A/J mice were given an i.p. dose of either single mAb or two mAbs in combination 24 hours before hematogensous challenge with a lethal dose (2×108) of C. auris AR-0386 live cells. Mice received either 9G2F5 alone or 6H1G8 alone or 9F2G5 and 3H7E3 in combination had 40% survival rate respectively, with prolonged survival as compared to control animals that received DPBS buffer control.
Evaluation and validation of a panel of peptide-specific monoclonal antibodies (mAbs) as a passive immunization strategy protect against invasive C. auris infection in established A/J mouse model of human disease.
The monoclonal antibodies used in this experiment were: • 6H1G8 (IgG2b), α-Hwp1 (Hyphal wall protein) • 3E2G2 (IgG2b), α-Fba (Fructose bisphosphate aldolase) • 10E7E2 (IgG1), α-GPV-P3 (General peptide vaccine 3 from Phosphoglycerate kinase) • 9F2G5 (IgG2a), α-Pgk1 (Phosphoglycerate kinase) • 3H7E3 (IgG1), α-Met6 (Methyltetrahydropteroyltriglutamate)

In test [2] the test system is C. albicans 3153A. In words: Passive transfer of mAbs or mAb cocktails i.p. before lethal i.v. challenge, mouse model of human disseminated candidiasis. Format: in vivo, Candida albicans. As to conditions: for Protection against C. albicans / Protection against C. albicans (grade word): Table 6, single mAb 0.5 ml i.p. 4 h before i.v. 5×10^5 C. albicans 3153A, BALB/c mice; for Protection against Candida spp in mouse model: Against C. albicans / Protection against Candida spp in mouse model: Against C. albicans (grade word): Table 9; for Protection of adsorbed mAb / Protection / Protection (grade word): Table 15; for Protection of adsorbed mAb: mAb removed by absorption with Candida cells before transfer; for Protection / Protection (grade word): single universal peptide-specific mAb, C. albicans. A digest of the protocol: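 Female BALB/c mice aged 6–8 weeks received 0.5 ml of a single mAb, or 1 ml of a two-mAb cocktail, i.p. 4 h before i.v. lethal C. albicans 3153A challenge, five mice per group over three experiments. Some groups were redosed every other day for two weeks. Survival followed to day 50.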

Test [3] has as its system C. auris. In words: Passive transfer of mAbs in cyclophosphamide-immunosuppressed B6.129X1Elane mice, disseminated infection by C. auris. As to conditions: 2×108 C. auris i.v. Format: in vivo, Candida auris. As for the experimental part:
An immunocompromised murine model of disseminated infection by C. auris was developed. To induce immunosuppression, Jackson B6.129X1Elane mice received a 200 mg/kg dose of cyclophosphamide (CY) by i.p. on day −3. Prolonged immunosuppression was maintained for 30 days by giving each animal a 200 mg/kg dose of CY by i.p. every 10 days after infection. On day 0, mice of different experimental groups were intravenously infected with 2×10^8 viable C. auris yeast cells.
The preventive effect of peptide-specific mAbs, for example 7H6A2 and 1D4H5, and combinations thereof, for example 7H6A2+1D4H5, was examined by passive transfer experiments. Each mAb was appropriately diluted in DPBS to give a 40,000-100,000 ELISA titer against each corresponding specific peptide coated on the plate. For testing, mice received 0.5 ml of each mAb or 1 ml of two mAbs in combination (0.5 ml of each) intraperitoneally. Control mice received 0.5 ml of the DPBS diluents.
Protective mAbs protect immunocompromised mice against disseminated infection by Candida auris: The possibility of using passive mAb immunotherapy in immunocompromised mice against disseminated candidiasis by C. auris. The protective effect of mAb 7H6A2, 1D4H5 or these two mAbs in combination against the disease in immunocompromised mice was examined by passive transfer experiments (FIG. 14). Mice received either mAb 7H6A2 or 1D4H5 or the two mAbs in combination had reduced CFUs in kidneys (FIG. 14A) and in brains (FIG. 14B) as compared with control mice.

We go through two molecules from patent US11707511B2, “Vaccine compositions and methods of using the same” (The Board of Supervisors of Louisiana State University and …, priority 2017, dated 2023).

B1: 10E7E2: IgG1 mAb of hybridoma 10E7E2, specific for GPV-P3; VH SEQ ID NO: 72, VL SEQ ID NO: 74 (antibody, V domains shown)
VH: QVQLKQSGPGLVQPSQSLSITCTVSGFSLTSYGVHWVRQSPGKGLEWLGVIWSGGTTDYNAAFISRLSISKDNSKSQVFFKMNSLQANDTAIYYCARGGHRGFAYWGQGTLVTVSA
VL: DIVMTQSHKFMSTSVGDRVSITCKASQDVGTAVAWYQQKPGQSPKLLIYWASTRHTGVPDRFTGSGSGTDFTLTISNVQSEDLADYFCQQYSSYPLTFGAGTKLELK
As for B1, in test [1] (A/J mouse model, in words), the “fungal burdens in targeted organs” value was “lower fungal loads” and the “protection against C. auris invasive infection” value was “protect against C. auris invasive infection”. In test [1] (FIG. 15A, A/J mice, 1×10^8 C. auris cells, experiment terminated 40 days post challenge), the survival worked out at 25%. Moreover, in test [1] (Table 19, A/J strain mice), the “Protection against C. auris” value is 80-100% and the “Protection against C. auris (grade word)” value is on record as “High”. For the same molecule, in test [2], the “Protection against C. albicans” value is on record as “(80-100%)”, the “Protection against C. albicans (grade word)” value is “High”, the “Protection against Candida spp in mouse model: Against C. albicans” value is “(80-100%” and the “Protection against Candida spp in mouse model: Against C. albicans (grade word)” value is “High”. Also, in test [2], the “Protection of adsorbed mAb” value is given as “None”, the Protection entry is “(80-100%)” and the “Protection (grade word)” value is reported as “High”.

B2: 1D4H5: IgG1 mAb of hybridoma 1D4H5, specific for GPV-M1; VH SEQ ID NO: 64, VL SEQ ID NO: 66 (antibody, V domains shown)
VH: MYLGLNCVFIVFLLKGVQSEVKLEESGGGLVQPGGSMKLSCVASGFTFSNYWMNWVRQSPEKGLEWVAEIRLKSNNYATHYAESVKGRFTISSDDSKSSVYLQMNNLRAEDTGIYYCSTGNYWGQGTTLTVSS
VL: MDFQMQIISLLLISVTVIVSNGEIVLTQSPTTMAASPGEKITITCSASSTISSNYLHWYQQKPGFSPKLLIYRTSNLASGVPARFSGSGSGTSYSLTIGTMEAEDVATYYCQQGSTISRTFGSGTKLEIK
B2: in test [2], the “Protection against C. albicans” value is reported as “(70-80%)”, the “Protection against C. albicans (grade word)” value is “High”, the “Protection against Candida spp in mouse model: Against C. albicans” value was “(70-80%)” and the “Protection against Candida spp in mouse model: Against C. albicans (grade word)” value is given as “High”. In test [2], the “Protection of adsorbed mAb” value was “None”, the Protection result is recorded as “(70-80%)” and the “Protection (grade word)” value is recorded as “High”. The “CFUs in kidneys as compared with control mice” value in test [3] (FIG. 14A) is “reduced CFUs”. The “CFUs in brains as compared with control mice” value in test [3] (FIG. 14B) was “reduced CFUs”.
